# Tests used:
# [1] = test system: MS2 coat protein; assay: apparent KD of MS2 coat protein; higher = weaker reporter binding; conditions: Eterna round: R101
# Protocol: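 RNA-MaP: designed FMN/MS2 RNA switches (84 nt design region) are transcribed on-chip within common flanks and titrated with SNAP-549-labelled MS2 coat protein (about 1-3000 nM) in 100 mM Tris pH 7.5, 80 mM KCl, 4 mM MgCl2, without or with 200 uM FMN. Median apparent KD per design; activation ratio = KD,OFF / KD,ON.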
# [2] = test system: MS2 coat protein; assay: apparent KD of MS2 coat protein, switch ON state; designed switch direction (-1 OFF switch, 1 ON switch): 1; higher = weaker reporter binding; conditions: FMN input: 0 or 200 uM; Eterna round: R93 (includes R88 designs)
# Outline: (§1)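 Apparent KD stands for the median, per design, of fits to normalised cluster binding curves. The curves came from titrating on-chip-transcribed RNA switches on Illumina sequencing clusters with SNAP-549-labelled MS2 coat protein, twofold from 0.7 or 1.5 nM to 3 µM. Buffer was 100 mM Tris-HCl pH 7.5, 80 mM KCl, 4 mM MgCl2, without or with constant ligand.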
# [3] = test system: MS2 coat protein; assay: apparent KD of MS2 coat protein, switch OFF state (with FMN for OFF switches, without FMN for ON switches); designed switch direction (-1 OFF switch, 1 ON switch): 1; higher = weaker reporter binding; conditions: FMN input: 0 or 200 uM; Eterna round: R93 (includes R88 designs)
# Outline: as §1
Sequence,apparent KD of MS2 coat protein ([1]; input ligand: FMN 200 uM) [nM],apparent KD of MS2 coat protein ([1]; input ligand: none) [nM],apparent KD of MS2 coat protein [2] [nM],apparent KD of MS2 coat protein [3] [nM]
AAAUAAACUCAAGGAUAUCAGUGGCAAAGCCACUGAGAAGGUGAGGAUCACCCACCUAAGAUCACAGGUGACGAAAGUCACCUG [#SharedSequence ExNG1 - 37] (puzzle (switch architecture): Exclusion NG 1),17.6,11.2,–,–
GGAGAUACAUGAGGAUCACCCAUGUAGGAUAUCGGGCCCAUACCCGGCGAAAGCCGGGUAUGGGCCGAGAAGGGCGUACACACC [#LOL-5] (puzzle (switch architecture): Small Loop Exclusion NG 3),7.47,8.26,–,–
AAUAAAACUCAAGGAUAUCAGUGGCAAAGCCACUGAGAAGGUGAGGAUCACCCACCUACGUGACGCUGGAAACAGCGUCACGAA [#SharedSequence ExNG1 - 33] (puzzle (switch architecture): Exclusion NG 1),36.3,15.8,–,–
AAAUAACUUGAAGGAUAUGACCCUCGAGGUGACUAAAAGUCACCUCGAGGGUCAGAAGGUCGAGGAUCACCCGACCAAGUGAAA [#SharedSequence SLExNG1: 9] (puzzle (switch architecture): Small Loop Exclusion NG 1),13.3,9.17,–,–
CUAUUAUAUGUAGGAUAUGCAUAUUAUUAUUGUGCAGAAGGACAUGAGGAUCACCCAUGUAUAUUAUUAUUAUAUAUUAUAUAU (puzzle (switch architecture): Exclusion NG 1),11.8,16.5,–,–
AGAAACUACGAGAAGGACAUGUGGUCCUUCAAAAAAAUGAGGAUCACCCAUGUAGGAUAUCGUAGUUUCAGGAUCGUGAGAUCA [salish99_ISLExNG1_x101 #HINGE] (puzzle (switch architecture): Inverted Small Loop Exclusion NG 1),9.58,30,–,–
AAGUGAAAUCAGAAGGGCUCCAGCAAAGCUGGAGCAGGAUAUGAGGAUCACCCAUAUCACCUGACGGUCGAAACGACCGUCAGG [#SharedSequence - IExNG1: 5-1] (puzzle (switch architecture): Inverted Exclusion NG 1),147,21.2,–,–
UUGGUUGUCGUAGGAUAUGUAGGAUAUUCCUACAUGAGGAUCACCCAUGUUCGCAUGGAAGAAGGACAGAAGGACGAUGACCAU [salish99_SSNG2_001 #endbits investigation] (puzzle (switch architecture): Same State NG 2),9.52,1280,–,–
GGGUACAUCGGAGGAUAUCAUGUAAAUACAUGAGGAUCACCCAUGUCGAUGGAGACAUAGGAGAUUGAGAAGGCCGAUGUACCG (puzzle (switch architecture): Same State NG 2),144,74,–,–
GGAGGAGGAUAAGGAUAUAACAUGAGGAUCACCCAUGUGGAGGAGGAGGAGGAGGAGGAGGAGGGUUAGAAGGUAUGGAGGAGG [First attempt] (puzzle (switch architecture): Exclusion NG 2),11,16.2,–,–
AAUAAACAAUAAAAGAGUCCACGAAACUUCUGAGGAUCACCCAGAAGGGCUGAGGUAAUACCUCAGCAGGAUAUGGACGUGGAC [#SharedSequence IExNG# - 1] (puzzle (switch architecture): Inverted Exclusion NG 3),5.09,5,–,–
UGGUACAUGGGAGGAUAUGGGUUGAUAACAUGAGGAUCACCCAUGUUAAAUAAGCCGAGAGGCUACUAGAAGGCCCAUGUACCU [#InverseDoubleMagnetSystem - JL SNG1 3.00 18] (puzzle (switch architecture): Same State NG 2),10.6,293,–,–
GGAGACCUUACAGGAUAUGCUGGACUUUGUCCAGCAGAAGGGUGAAUACAUGAGGAUCACCCAUGUAUGGUCUCCAAAUUUAAU [jl-ssng1-3.05 #GC_VS_GU_SWITCHING] (puzzle (switch architecture): Same State NG 1),121,52.2,–,–
AAAUAAAUUGAAGGAUAUGACCCUCGAGGUGACUAAAAGUCACCUCGAGGGUCAGAAGGUCGAGGAUCACCCGAUCUAAAUAAA [#SharedSequence SLExNG1: 1-1] (puzzle (switch architecture): Small Loop Exclusion NG 1),13.1,8.27,–,–
UGCUAACUGUAGAAGGGUGACAUGAGGAUCACCCAUGUGCACGCGCGCUUUACGGCGCGCGUGCCACAGGAUAUACAGUUGAGU [Erora] (puzzle (switch architecture): Inverted Same State NG 2),55.1,43.1,–,–
AGAAAUAAAAGAGAGGAUAUCUCAAAGAAAACAUGAGGAUCACCCAUGUAAAAGAAAAUAAAAUGGGAGAAGGCUCAUAAUAAAG [JL Skelter Mod 5 In the Red],–,–,54.3,133
AAAAGACAUGAGGAUCACCCAUGUGAAAACGUGCGAGGAUAUGUAUGGAAACUAUACUGUACAGAAGGCGCGUGUC [SS1 - 82],–,–,19.7,25.4
AAUACACAUGGUCAGGAUAUCGCAGCUAGGACAUGAGGAUCACCCAUGUCGCAUGUAACUGUAACCGAGAAGGGACAGGGUGAUC [JR_SS002_Sub411],–,–,123,92.6

Sequence,apparent KD of MS2 coat protein ([1]; input ligand: FMN 200 uM) [nM],apparent KD of MS2 coat protein ([1]; input ligand: none) [nM],apparent KD of MS2 coat protein [2] [nM],apparent KD of MS2 coat protein [3] [nM]
"GAAAAACAUGAGGAUCACCCAUGUAAAAAUAUGGGAGGAUAUACAAAGACGAAAGUCAAAGUAGAAGGCCUAAAAG [77%, Mat - Mod of Eli, 3]",–,–,24.4,59.7
GGGAGACAUGAGGAUCACCCAUGUGAGAAGAGGCGAGGAUAUCGAAAGAAAGAAGAGAAACGAGAAGGCGCGAGAU [salish99-SS1-053],–,–,30.3,67
AAAAAUUCUUAAGGAUAUGACUCCGAAACGGAGUCAGAAGGUGAGGAUCACCCACCUAGCUCAGCGUCGAAAGACGCUGAGCAA [#SharedSequence ExNG1 - 28] (puzzle (switch architecture): Exclusion NG 1),12,10.9,–,–
AAAAGACAUGAGGAUCACCCAUGUAAAGACGUAGGAGGAUAUGUCGUGAAAAAAGACUUGGCAGAAGGCCUGUGUC [SS1 - 40],–,–,21.4,26.6
UAGAGACAUGAGGAUCACCCAUGUAGGAUUAUGGGAGGAUAUACAAAGACGAGAGUCAGAGUAGAAGGCCUAGGAA [salish99-ss1-133(!)],–,–,24.9,74.6
UGGAGACAUGAGGAUCACCCAUGUGAGAAGAGGCGAGGAUAUCGAAAGAAAGAAGAGAAACGAGAAGGCGCGAGCA [salish99-SS1-040],–,–,25.9,40.2
CGUAAACAUGAGGAUCACCCAUGUCAAUAUGAUCAAGGAUAUGGGUUCCGAAGUGGAACACCAGAAGGUGAAUAGU [Inrea],–,–,377,580
AGACAUAACAGAGAGGAUAUCCAAUAGAAAACAUGAGGAUCACCCAUGUGAAAGAUAAUAAAAUGGGAGAAGGCUCACAUACAGA [Topaz 40],–,–,19.5,30.4
AAAAAACAUGAGGAUCACCCAUGUCAAAAGACGUGAGGAUAUGUACAGACUUCGGUCUGUACAGAAGGCACGUAAA [SS1 - 1039],–,–,15.7,25.7
UAAAAUAAAACAUAGGAUAUCAAAAUAAAAACAUGAGGAUCACCCAUGUGAAAACAUGAGAAGGAUGAGAAGGAAAAUAAAAUAA [Meechl SS2 R2 m1],–,–,25.7,51.6
AGAAAUAAAGGAGAGGAUAUCCAAAAGAAAACAUGAGGAUCACCCAUGUAAAAGAAAAUAAAAUGGGAGAAGGCUUCAAAUAAGA [Starry modified V4],–,–,52.3,46.4
AAAAAACAUGAGGAUCACCCAUGUCGAAAGACGUGAGGAUAUGUACAGACUUCGGUCUGUACAGAAGGCACGAAAA [SS1 - 1038],–,–,18.5,60.4
GACUGACAUGAGGAUCACCCAUGUAUUCGAGCAUGAGGAUAUAUGACACGUCAUCGACGGAUAGAAGGCAUGGAUG [JR_SS001_Sub1211],–,–,232,208
GUGGUGCAGGUACAGGAUAUGUUGCUCGUAACAUGAGGAUCACCCAUGUACCUAUGAGAUUAAAUGCAGAAGGGUGCACACCACG [Edtiditele],–,–,28.4,208
AACAACAAUAUGAAGGAUAUCCACAACAAGACAUGAGGAUCACCCAUGUAAACUUAGAACAUACAGGAGAAGGUCAAGGGUGAAU [JR_SS002_Sub1204],–,–,221,63.2
GACUGACAUGAGGAUCACCCAUGUAUUCAAACAUGAGGAUAUAUAACACGUCAUCGACGGAUAGAAGGCAUAGAUG [JR_SS001_Sub1209],–,–,117,162
"AAGAAACAUGAGGAUCACCCAUGUAAGAAUAUGGGAGGAUAUGCGAAAAGAAACAAAGAAGCAGAAGGCCUAAGAA [75%, Ex5 sub 1, 5]",–,–,26.6,57.6
